The values below come from PMC8216288.

In series [1] the test system is Sm core (heptameric ring SmB/D1/D2/D3/E/F/G) assembled from GFP-pICln immunoprecipitate, detected by Y12 supershift. Nature of the series: EMSA with Y12 supershift. The settings on record: S100 assembly: 50 ug extract, 2 ug tRNA, 5 mM ATP, 1 ul RNAsin in 20 ul PBS, 35 C, 45 min, native RNA gel, pH not stated, GFP-pICln IP with or without ATP and …. For orientation: Mobility shift assays separate free from complexed probe on a gel.

The target in series [2] is GST-pICln S193, 195, 197D (phospho-mimicking aspartate mutant) (human) (UniProt P54105). In words: SPR; Biacore T200; GST-pICln immobilised by amine coupling on CM5 chip (400 RU), SmG as analyte; multi-cycle, 20°C, 10 μl/min; 300 mM NaCl, 50 mM Tris/HCl pH 7.5, 1 mM EDTA, 1 mM EGTA; steady-state fit; n = 3. Background: In SPR one partner is held on a chip, and binding of the other changes the refractive index at the surface.
Sequence of GST-pICln S193, 195, 197D (phospho-mimicking aspartate mutant) (human) (P54105 other isoform, or with tags, fused parts or gaps mutant): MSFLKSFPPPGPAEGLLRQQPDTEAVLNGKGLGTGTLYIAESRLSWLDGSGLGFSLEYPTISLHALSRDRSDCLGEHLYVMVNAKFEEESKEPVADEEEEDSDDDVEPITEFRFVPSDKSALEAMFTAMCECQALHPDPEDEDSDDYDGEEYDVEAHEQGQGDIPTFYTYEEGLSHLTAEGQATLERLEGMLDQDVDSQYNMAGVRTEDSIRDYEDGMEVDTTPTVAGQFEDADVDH

Turning to U1 snRNA, the binding signal (fold vs IP alone) stood at 1.3 in series [1] (+ATP + ULK2, stated as no effect); 2.6 in series [1] (+ATP + active ULK1); 1.4 in series [1] (+ATP). Besides, the binding signal (fold (reference)) in series [1] was determined as 1.

Usually Kd stands for a measure of binding affinity in units of concentration. Low readings indicate a tighter complex, high ones a looser complex. On to “SmG purified from E. coli (SPR analyte) (from UniProt P62308 1-76) (natural protein)”, for which, in series [2], the Kd stood at 84.7 µM.
